Entries after “also recorded” stand apart in the source; their conditions may differ.
B1: P2A: broad spectrum carbapenemase, class B metallo-enzyme requiring zinc, SEQ ID NO: 37; P2A-21 = product of strain SYT-PP0602-21 (protein)
chain: ETGTISISQLNKNVWVHTELGYFNGEAVPSNGLVLNTSKGLVLVDSSWDNKLTKELIEMVEKKFQKRVTDVIITHAHADRIGGITALKERGIKAHSTALTAELAKNSGYEEPLGDLQTITSLKFGNTKVETFYPGKGHTEDNIVVWLPQYQILAGGCLVKSAEAKDLGNVADAYVNEWSTSIENVLKRYGNINSVVPGHGEVGDKGLLLHTLDLLK
B2: NDM: New Delhi metallo-β-lactamase NDM-1; NDM-68 = product of strain STY-NP1602-68 (STII Δ35, N-terminal GQQMETG) (protein)
chain: GQQMETGDQRFGDLVFRQLAPNVWQHTSYLDMPGFGAVASNGLIVRDGGRVLVVDTAWTDDQTAQILNWIKQEINLPVALAVVTHAHQDKMGGMDALHAAGIATYANALSNQLAPQEGMVAAQHSLTFAANGWVEPATAPNFGPLKVFYPGPGHTSDNITVGIDGTDIAFGGCLIKDSKAKSLGNLGDADTEHYAASARAFGAAFPKASMIVMSHSAPDSRAAITHTARMADKLR

Tests used:
[1] = CENTA chromogenic beta-lactamase biological activity assay (P3A standard curve); assay type: biochemical; conditions: for stability of enzyme activity in cell lysates under differing storage conditions: fresh, frozen (−80° C.) or overnight at 4° C. lysate; for relative potency for CENTA degradation: midpoint of sigmoid curve, protein concentration vs OD405, P3A=1.0; for β-Lactamase: purified carbapenemase, P3A standard
Protocol: Biological activity of the carbapenemases, P2A, NDM, and KPC, present in the E. coli cell lysates were evaluated in a microtiter plate assay using CENTA as the chromogenic substrate (Bebrone et al. Antimicrob. Agents Chemother (2001) 45:1868-1871; van Berkel et al., J. Med. Chem. (2013) 56:6945-6953). Briefly, the assay was performed in a 50 mM NaH2PO4 buffer, pH 7.0 with supplementation of 100 uM ZnSO4, with CENTA (Calbiochem Cat #219475) at 50 ug/ml. The assays were run using purified P3A protein for the standard curve at protein concentrations of 0 ng/ml, 3 ng/ml, 6 ng/ml, 8 ng/ml, 10 ng/ml, 15 ng/ml, 20 ng/ml and 40 ng·ml. The plates were read at 405 nm after a 30 minute incubation using a microtiter plate reader. Cell lysates from the bacterial strains showing the highest protein expression levels by SDS-PAGE were evaluated for biological activity, which included P2A strains 5, 15, 20, 21, and 23, NDM strains 53, 58, 63, 68, and 69, and KPC strains 94, 96, 99, 100, 101, 102, 103, and 104 (Table 11). In addition, fresh lysate, frozen (−80° C.) lysate, or lysate stored overnight at 4° C. from strain P2A-21 were compared, and fresh and frozen (−80° C.) lysates from strain NDM-63 were compared to assess the stability of enzyme activity under differing storage conditions. All other lysates were kept frozen at −80° C. until assayed (Table 11).
Bacterial lysates were analyzed for protein expression by SDS-PAGE. Strong NDM expression was detected in all strains with good reproducibility between shake flasks (FIG. 4). Strong expression of P2A and KPC was also detected with good reproducibility between shake flasks (FIG. 5). In all cases, the vast majority of the protein was detected in the soluble fractions (FIG. 4 and FIG. 5). Biological activity was assessed in the cell lysates using the CENTA assay as described with P3A as the standard. […] The highest biological activity for NDM was from strain NDM-68.
Aliquots of bacteria were collected early in the fermentation cycle, 16 hours, for P2A and NDM, and 32 hours for KPC, prior to enzyme expression induction, and late in the cycle (48 hours) and subjected to SDS-PAGE (FIG. 6 and FIG. 7) and biological activity analyses (Table 15). […] Fermenters A, B, and C, reached high ODs. […] Bioreactor expression is achieved by changing of growth conditions, lowering phosphate conditions, and/or changing the promoter.
Frozen cell pellets retained from the fermenter studies, Fermenter A, P2A, Fermenter B, NDM, or from the shake flask studies, shake flask A, KPC, were lysed at 3×7000 psi in a Panda table top cell homogenizer. The lysate was spun at 45000 g for 1 hour, supernatants collected and pH adjusted to 5.5 with 1 M MES. The supernatants were spun at 45000 g for 30 minutes, to remove precipitated debris and filtered through a 0.45 um filter. The filtered supernatants were subjected to cation-exchange chromatography using an SP-sepharose column. NDM was subjected to an additional purification step using a hydrophobic column, phenyl sepharose. The fractions containing the peak levels of protein were concentrated and dialyzed against a 20 mM HEPES, pH 7.5, 150 mM NaCl buffer. The P2A and NDM samples were supplemented with 100 uM ZnSO4 in all steps of the purification process. Purified enzymes yields were calculated to be approximately 600 mg of protein per liter. Purified proteins were analyzed by SDS-PAGE (FIG. 8) and for biological activity (Table 16).
As different beta-lactamase enzymes display differential affinity and kinetics with diverse substrates, including antibiotics and the CENTA reagent, it was possible to determine the relative specific activities of P2A, NDM, and KPC compared to P3A for CENTA as a substrate now that purified proteins were available and therefore, protein concentrations were known. […]

E. coli (ATCC 25922) = assay: Antibiotic inactivation screening assay via E. coli growth (96 well plate, OD625); assay type: cell-based; conditions: for activity against cephalosporins and carbapenems / antibiotic degradation profile compared with P3A: 10, 100 or 1000 ng/ml enzyme; for inhibition by beta-lactamase inhibitors: SAM, TZP, CAZ/AVI combinations; for degradation of carbapenems: meropenem, imipenem, ertapenem, doripenem
Protocol: To mimic the activity of the carbapenemase enzymes, P2A, NDM, and KPC in the gut in the presence of high antibiotic concentrations, a novel screening assay was performed using a 96 well plate format. The assay was performed by mixing 10, 100 or 1000 μg/ml of the antibiotics, AMP: ampicillin, SAM: ampicillin/sulbactam, PIP: pipercillin, TZP: pipercillin/taxobactam, CRO: ceftriaxone, CTX: cefotaxime, CFZ: cefozolin, CXM: cefuroxime, CFP: cefoperazone, FEP: cefepime, CAZ: ceftazidime, MEM: meropenem, IPM: imipenem, ERT: ertapenem, DOR: doripenem, ATM: aztreonam, CDR: cefdinir; LEX: cephalexin; and CAZ/AVI: […]/avibactam with purified P2A, NDM, KPC, and P3A at concentrations of 10, 100, or 1000 ng/ml in each well of a 96 well microtiter plate. E. coli (ATCC 25922) was added immediately after the addition of the beta-lactamase enzymes, and the plates were incubated overnight. Bacterial growth was quantified by measuring the absorbance at 625 nm (OD625) in a Spectramax 384 Plus plate reader. The analysis was performed twice for each antibiotic. The beta-lactamase activity was determined as positive or negative based on the appearance of bacterial growth in the individual wells. An OD625 of 1.0 or greater indicated maximal bacterial growth, therefore complete antibiotic degradation and beta-lactamase activity. […] FIGS. 21A, 21B, and 21C display the comparison of the four beta-lactamases, P3A (SYN-004), P2A, NDM, and KPC with all 16 antibiotics at beta-lactamase concentrations of 10, 100, or 1000 ng/ml. […]

[2] = Oral P2A and intravenous cefotaxime in jejunal-fistulated dogs; assay type: in vivo, laboratory beagles; conditions: peroral P2A 1 mg/kg, intravenous cefotaxime 60 mg/kg, omeprazole
Protocol: The ability of P2A to degrade cefotaxime in the dog intestinal tract was evaluated using laboratory beagles that had permanent jejunal fistulas. The fistulas allowed the repeated collection of jejunal chyme specimens from these animals. Dogs were treated with peroral P2A (1 mg/kg) in a liquid formulation (PBS buffer), and/or intravenous cefotaxime (60 mg/kg). A single dose of omeprazole (10 mg) was delivered orally to each dog prior to treatment with ceftriaxone and/or P2A to inhibit the HCl activity in the stomach to potentially reduce P2A degradation. Serum samples were collected and serum cefotaxime levels quantified. Jejunal chyme samples were collected and cefotaxime and P2A levels were quantified. Cefotaxime levels in serum and chyme were measured using a plate diffusion method using cefotaxime susceptible Micrococcus luteus TS504 as the test strain. P2A activity levels in chyme were determined spectrophotometrically using meropenem as a substrate. Meropenem hydrolysis was monitored at a wavelength of 297 nm.

[3] = fermenter cell lysate, 16 hr, Bioreactor A or B (standard phosphate)
[4] = fermenter cell lysate, 48 hr, Bioreactor A, B or D (standard phosphate)

| Molecule | Activity ([1]; bacterial cell lysate, shake flask culture, Flask A, CENTA, P3A as the standard) [mg/L] | Activity ([1]; bacterial cell lysate, shake flask culture, Flask B, CENTA, P3A as the standard) [mg/L] | Activity [1, 3] [mg/L] | Activity [1, 4] [mg/L] | stability of enzyme activity in cell lysates under differing storage conditions [1] | relative potency for CENTA degradation [1] | β-Lactamase ([1]; CENTA) [mg/L] | activity against cefepime and ceftazidime compared to NDM (E. coli (ATCC 25922)) | activity against cephalosporins and carbapenems (E. coli (ATCC 25922)) | antibiotic degradation profile compared with P3A (E. coli (ATCC 25922)) | inhibition by beta-lactamase inhibitors (E. coli (ATCC 25922)) | degradation of carbapenems (E. coli (ATCC 25922)) | cefotaxime in jejunal chyme [2] | effect on serum levels of cefotaxime [2] | Activity ([1]; fermenter cell lysate, 16 hr, Bioreactor C (extra zinc and extra phosphate)) [mg/L] | Activity ([1]; fermenter cell lysate, 48 hr, Bioreactor C (extra zinc and extra phosphate)) [mg/L] |
| --- | --- | --- | --- | --- | --- | --- | --- | --- | --- | --- | --- | --- | --- | --- | --- | --- |
| B1 | 19.6 | 17.0 | 3.2 | 59.7 | No difference in activity | 0.12 | 317.7 | activity was reduced against the cephalosporins, cefepime and ceftazidime | good activity against all carbapenems and most cephalosporins | broader degradation profile than P3A | resistant to inhibition by sulbactam, tazobactum, and avibactam | efficiently degraded meropenem, imipenem, ertapenem, and doripenem | degraded cefotaxime | does not reduce serum levels of cefotaxime | – | – |
| B2 | – | – | 6.6 | 520.0 | No difference in activity | 0.71 | 1703.8 | – | efficiently degraded all tested cephalosporins and carbapenems | broader degradation profile than P3A | resistant to inhibition by sulbactam, tazobactum, and avibactam; also recorded: least affected by sulbactam | efficiently degraded meropenem, imipenem, ertapenem, and doripenem | – | – | 5.8 | 14.1 |

From patent US11123413B2, “Carbapenemases for use with antibiotics for the protection of the intestinal microbiome” (priority 2015, dated 2021)
